From the supplement of paper PMC9112550, “Optimization of the antimicrobial peptide Bac7 by deep mutational scanning” (BMC Biology, 2022)

Test system: Escherichia coli TOP10
Test: shrunken log2 fold change of peptide-encoding DNA abundance (4.5 h post-induction vs induction); higher = less antimicrobial activity (less host growth inhibition)
Settings: time post-induction: 4.5 h; library: site-saturation at positions 5, 18, 19, 20
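Note: peptides expressed intracellularly from a pBAD plasmid library in pooled LB shake-flask culture, induced with 0.3% L-arabinose, DNA abundance read by NGS, three biological replicates, DESeq2 with apeglm shrinkage.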

In the case of RRIRYRPPRLPRPRPRPDCIPRP, the “shrunken log2 fold change” value is reported as -0.501.
In the case of RRIRCRPPRLPRPRPRPYMAPRP, the “shrunken log2 fold change” value is reported as -0.283.
With RRIRDRPPRLPRPRPRPHWQPRP the “shrunken log2 fold change” value was -0.149.
RRIRTRPPRLPRPRPRPRDAPRP was tested, and the “shrunken log2 fold change” value was 0.881.
For RRIRERPPRLPRPRPRPHGPPRP, the “shrunken log2 fold change” value was 0.139.
For RRIRNRPPRLPRPRPRPREQPRP, the “shrunken log2 fold change” value was -0.00697.
RRIRYRPPRLPRPRPRPMGDPRP was tested, and the “shrunken log2 fold change” value was -0.0018.
RRIRFRPPRLPRPRPRPYKYPRP was tested, and the “shrunken log2 fold change” value was -0.907.
With RRIRMRPPRLPRPRPRPECIPRP the “shrunken log2 fold change” value was 1.61.
With RRIRGRPPRLPRPRPRPMLRPRP the “shrunken log2 fold change” value was 0.117.
With RRIRCRPPRLPRPRPRPFYTPRP the “shrunken log2 fold change” value was 0.235.
In the case of RRIRQRPPRLPRPRPRPCNYPRP, the “shrunken log2 fold change” value is reported as 0.00177.
For RRIRPRPPRLPRPRPRPGGMPRP, the “shrunken log2 fold change” value was 0.189.
In the case of RRIRKRPPRLPRPRPRPLMFPRP, the “shrunken log2 fold change” value is reported as 0.0317.
For RRIRLRPPRLPRPRPRPNLAPRP, the “shrunken log2 fold change” value was -0.0506.
With RRIRVRPPRLPRPRPRPSFRPRP the “shrunken log2 fold change” value was -0.42.
RRIRARPPRLPRPRPRPDYPPRP was tested, and the “shrunken log2 fold change” value was -0.0306.
RRIRVRPPRLPRPRPRPDGQPRP was tested, and the “shrunken log2 fold change” value was -0.0901.
With RRIRLRPPRLPRPRPRPISLPRP the “shrunken log2 fold change” value was -0.36.
In the case of RRIRNRPPRLPRPRPRPGVMPRP, the “shrunken log2 fold change” value is reported as -0.141.
With RRIRDRPPRLPRPRPRPFWFPRP the “shrunken log2 fold change” value was 0.0429.
With RRIRCRPPRLPRPRPRPLMHPRP the “shrunken log2 fold change” value was -0.264.
RRIRSRPPRLPRPRPRPVWGPRP was tested, and the “shrunken log2 fold change” value was 0.185.
For RRIRDRPPRLPRPRPRPWVEPRP, the “shrunken log2 fold change” value was 0.105.
For RRIRWRPPRLPRPRPRPQRFPRP, the “shrunken log2 fold change” value was 0.206.
With RRIRCRPPRLPRPRPRPEELPRP the “shrunken log2 fold change” value was 0.249.
With RRIRMRPPRLPRPRPRPHMKPRP the “shrunken log2 fold change” value was -0.158.
With RRIRWRPPRLPRPRPRPHVKPRP the “shrunken log2 fold change” value was -0.439.
With RRIRPRPPRLPRPRPRPMYPPRP the “shrunken log2 fold change” value was -0.135.
For RRIRVRPPRLPRPRPRPWIWPRP, the “shrunken log2 fold change” value was 0.00605.
RRIRQRPPRLPRPRPRPKHNPRP was tested, and the “shrunken log2 fold change” value was -0.368.
With RRIRWRPPRLPRPRPRPHTPPRP the “shrunken log2 fold change” value was 0.0133.
For RRIRRRPPRLPRPRPRPNGYPRP, the “shrunken log2 fold change” value was 0.17.
With RRIRHRPPRLPRPRPRPSQIPRP the “shrunken log2 fold change” value was -0.0599.
For RRIRDRPPRLPRPRPRPEPPPRP, the “shrunken log2 fold change” value was 1.06.
RRIRKRPPRLPRPRPRPFHYPRP was tested, and the “shrunken log2 fold change” value was -0.0954.
In the case of RRIRGRPPRLPRPRPRPCHVPRP, the “shrunken log2 fold change” value is reported as -0.172.
RRIRWRPPRLPRPRPRPVRQPRP was tested, and the “shrunken log2 fold change” value was 0.161.
RRIRARPPRLPRPRPRPTNGPRP was tested, and the “shrunken log2 fold change” value was -0.0688.
With RRIRKRPPRLPRPRPRPTNYPRP the “shrunken log2 fold change” value was -0.114.
RRIRFRPPRLPRPRPRPSEAPRP was tested, and the “shrunken log2 fold change” value was -0.0845.
With RRIRERPPRLPRPRPRPQEIPRP the “shrunken log2 fold change” value was 0.0133.
For RRIRERPPRLPRPRPRPETYPRP, the “shrunken log2 fold change” value was -0.152.
In the case of RRIRGRPPRLPRPRPRPWNIPRP, the “shrunken log2 fold change” value is reported as -0.409.
In the case of RRIRMRPPRLPRPRPRPWPLPRP, the “shrunken log2 fold change” value is reported as 0.0935.
In the case of RRIRRRPPRLPRPRPRPHQQPRP, the “shrunken log2 fold change” value is reported as -0.0551.
RRIRQRPPRLPRPRPRPFEAPRP was tested, and the “shrunken log2 fold change” value was -0.0497.
RRIRIRPPRLPRPRPRPIWQPRP was tested, and the “shrunken log2 fold change” value was 0.182.
In the case of RRIRWRPPRLPRPRPRPLPRPRP, the “shrunken log2 fold change” value is reported as 0.534.
RRIRTRPPRLPRPRPRPIWEPRP was tested, and the “shrunken log2 fold change” value was -0.178.
With RRIRLRPPRLPRPRPRPEGRPRP the “shrunken log2 fold change” value was 1.11.
With RRIRNRPPRLPRPRPRPCKQPRP the “shrunken log2 fold change” value was -0.0218.
For RRIRVRPPRLPRPRPRPQGRPRP, the “shrunken log2 fold change” value was -0.0469.
For RRIRRRPPRLPRPRPRPMQFPRP, the “shrunken log2 fold change” value was -0.058.
In the case of RRIRLRPPRLPRPRPRPGPTPRP, the “shrunken log2 fold change” value is reported as 0.109.
RRIRPRPPRLPRPRPRPHMSPRP was tested, and the “shrunken log2 fold change” value was -0.27.
In the case of RRIRSRPPRLPRPRPRPIHMPRP, the “shrunken log2 fold change” value is reported as -0.397.
In the case of RRIRSRPPRLPRPRPRPNTTPRP, the “shrunken log2 fold change” value is reported as -0.194.
With RRIRKRPPRLPRPRPRPANWPRP the “shrunken log2 fold change” value was 0.596.
With RRIRQRPPRLPRPRPRPHATPRP the “shrunken log2 fold change” value was -0.0615.
For RRIRARPPRLPRPRPRPEVRPRP, the “shrunken log2 fold change” value was 0.623.
RRIRIRPPRLPRPRPRPSICPRP was tested, and the “shrunken log2 fold change” value was -0.814.
For RRIRERPPRLPRPRPRPVCKPRP, the “shrunken log2 fold change” value was 0.0272.
In the case of RRIRFRPPRLPRPRPRPDLHPRP, the “shrunken log2 fold change” value is reported as -0.274.
In the case of RRIRCRPPRLPRPRPRPYRNPRP, the “shrunken log2 fold change” value is reported as 0.0132.
In the case of RRIRKRPPRLPRPRPRPHSLPRP, the “shrunken log2 fold change” value is reported as 0.0727.
In the case of RRIRHRPPRLPRPRPRPTNPPRP, the “shrunken log2 fold change” value is reported as -0.363.
For RRIRKRPPRLPRPRPRPFARPRP, the “shrunken log2 fold change” value was 0.187.
For RRIRGRPPRLPRPRPRPKEWPRP, the “shrunken log2 fold change” value was -0.00523.
For RRIRHRPPRLPRPRPRPGNNPRP, the “shrunken log2 fold change” value was -0.00857.
RRIRSRPPRLPRPRPRPGEIPRP was tested, and the “shrunken log2 fold change” value was 0.223.
For RRIRRRPPRLPRPRPRPWVRPRP, the “shrunken log2 fold change” value was -0.0986.
In the case of RRIRMRPPRLPRPRPRPQSHPRP, the “shrunken log2 fold change” value is reported as 0.083.
For RRIRTRPPRLPRPRPRPHHLPRP, the “shrunken log2 fold change” value was 0.0331.
With RRIRIRPPRLPRPRPRPHMSPRP the “shrunken log2 fold change” value was -0.109.
With RRIRDRPPRLPRPRPRPDCKPRP the “shrunken log2 fold change” value was 0.0499.
In the case of RRIRQRPPRLPRPRPRPADRPRP, the “shrunken log2 fold change” value is reported as 0.0738.
In the case of RRIRRRPPRLPRPRPRPSFIPRP, the “shrunken log2 fold change” value is reported as -0.391.
RRIRFRPPRLPRPRPRPVRCPRP was tested, and the “shrunken log2 fold change” value was 0.308.
In the case of RRIRMRPPRLPRPRPRPMQIPRP, the “shrunken log2 fold change” value is reported as 0.0553.
RRIRHRPPRLPRPRPRPRPVPRP was tested, and the “shrunken log2 fold change” value was 0.22.
With RRIRGRPPRLPRPRPRPTRFPRP the “shrunken log2 fold change” value was 0.19.
With RRIRARPPRLPRPRPRPDINPRP the “shrunken log2 fold change” value was 0.0789.
With RRIRKRPPRLPRPRPRPLFHPRP the “shrunken log2 fold change” value was 0.0214.
With RRIRPRPPRLPRPRPRPNFDPRP the “shrunken log2 fold change” value was -0.0128.
With RRIRSRPPRLPRPRPRPLHWPRP the “shrunken log2 fold change” value was 0.197.
With RRIRTRPPRLPRPRPRPMHGPRP the “shrunken log2 fold change” value was -0.0017.
RRIRQRPPRLPRPRPRPLYNPRP was tested, and the “shrunken log2 fold change” value was -0.796.
With RRIRCRPPRLPRPRPRPDPAPRP the “shrunken log2 fold change” value was 0.412.
With RRIRQRPPRLPRPRPRPFCFPRP the “shrunken log2 fold change” value was 0.117.
RRIRKRPPRLPRPRPRPGTAPRP was tested, and the “shrunken log2 fold change” value was 0.625.
For RRIRGRPPRLPRPRPRPEPWPRP, the “shrunken log2 fold change” value was 0.655.
For RRIRKRPPRLPRPRPRPQCGPRP, the “shrunken log2 fold change” value was 0.0718.
With RRIRPRPPRLPRPRPRPRQTPRP the “shrunken log2 fold change” value was 0.338.
With RRIRDRPPRLPRPRPRPSTLPRP the “shrunken log2 fold change” value was -0.267.
In the case of RRIRDRPPRLPRPRPRPTFKPRP, the “shrunken log2 fold change” value is reported as -0.0434.
For RRIRIRPPRLPRPRPRPNDGPRP, the “shrunken log2 fold change” value was -0.483.
In the case of RRIRMRPPRLPRPRPRPSHIPRP, the “shrunken log2 fold change” value is reported as -0.659.
RRIRNRPPRLPRPRPRPFFLPRP was tested, and the “shrunken log2 fold change” value was -0.255.
RRIRRRPPRLPRPRPRPICYPRP was tested, and the “shrunken log2 fold change” value was -0.0102.
RRIRIRPPRLPRPRPRPVTNPRP was tested, and the “shrunken log2 fold change” value was -0.208.
In the case of RRIRCRPPRLPRPRPRPVKCPRP, the “shrunken log2 fold change” value is reported as -0.432.
For RRIRWRPPRLPRPRPRPTEMPRP, the “shrunken log2 fold change” value was -0.00675.
In the case of RRIRYRPPRLPRPRPRPTSSPRP, the “shrunken log2 fold change” value is reported as -0.0743.
RRIRHRPPRLPRPRPRPRVFPRP was tested, and the “shrunken log2 fold change” value was 0.201.
RRIRDRPPRLPRPRPRPFHIPRP was tested, and the “shrunken log2 fold change” value was -0.254.
In the case of RRIRIRPPRLPRPRPRPNYYPRP, the “shrunken log2 fold change” value is reported as -1.07.
RRIRLRPPRLPRPRPRPAPPPRP was tested, and the “shrunken log2 fold change” value was 0.676.
In the case of RRIRFRPPRLPRPRPRPNPQPRP, the “shrunken log2 fold change” value is reported as 0.17.
